Series [1] has as its target octameric (AqpZ-ALFA)4(nB)4 complex (E. coli) (UniProt P60844). Description: cryo-EM structure; AqpZ-ALFA incubated with five-fold molar excess of nB in C8E4, complex purified (StrepTrap, Superdex 200), 10 mg/mL, 5-fold molar excess of 18:1 cardiolipin (TOCDL); prepared at room temperature, grid at 5 °C; D4 symmetry, 1.9 Å.
Series [2] concerns the molecule itself. Described as above.

What is called stoichiometry N is the number of molecules, sites or subunits per partner or assembly.

“octameric (AqpZ-ALFA)4(nB)4 complex (from UniProt P60844 1-227)” registered a stoichiometry N in series [1] of 2.

B1: AqpZ-ALFA (E. coli aquaporin Z with the ALFA tag grafted onto its C-terminus, flexible linker and Strep-tag II) (other)
chain: MFRKLAAECFGTFWLVFGGCGSAVLAAGFPELGIGFAGVALAFGLTVLTMAFAVGHISGGHFNPAVTIGLWAGGRFPAKEVVGYVIAQVVGGIVAAALLYLIASGKTGFDAAASGFASNGYGEHSPGGYSMLSALVVELVLSAGFLLVIHGATDKFAPAGFAPIAIGLALTLIHLISIPVTNTSVNPARSTAVAIFQGGWALEQLWFFWVVPIVGGIIGGLIYRTLLRASRLEEELRRRLTEPGGGPG
notes: Aquaporin Z (AqpZ), E. coli, UniProt P60844; from the start up to the printed C-terminal residues IYRTLL; the last residues of the natural protein are replaced by the graft; followed by aswshpqfek (Strep-tag II, written as a tag); Tetramer; also called AqpZ-ALFA-St; source: E. coli BL21-A1, purified (octyl glucoside extraction of membranes, StrepTrap, Superdex 200 in C8E4); not shown: Strep-tag …
Take B1: in series [2], the “stoichiometry N” value was 4.

Source of the values: PMC10867769, “Grafting the ALFA tag for structural studies of aquaporin Z” (Journal of Structural Biology: X, 2024).
